Laboratory results from article PMC11066147.
Values joined by “and” are separate entries in the source; they are usually repeats but may differ in a detail not shown here. Equal values may be shown once. Read-outs that look alike come from different tables or passages of the source.

Key:
Test in all cases: SPR
[1] = target: PfHsp70-1LS (linker switch mutant of PfHsp70-1 carrying the linker of PfHsp70-z) (Plasmodium falciparum) (UniProt Q8IB24)
[2] = target: PfHsp70-zLS (linker switch mutant of PfHsp70-z carrying the linker of canonical Hsp70) (Plasmodium falciparum) (UniProt Q8IC01)
[3] = target: DnaKLS (linker switch mutant of DnaK harbouring the PfHsp70-z linker) (E. coli) (UniProt P0A6Y8)
[4] = target: PfHsp70-1LS (linker switch mutant of PfHsp70-1 carrying the linker of PfHsp70-z) (Plasmodium falciparum) (UniProt Q8IB24); remark: listed apart in the source
[5] = target: PfHsp70-zLS (linker switch mutant of PfHsp70-z carrying the linker of canonical Hsp70) (Plasmodium falciparum) (UniProt Q8IC01); remark: listed apart in the source
[6] = target: DnaKLS (linker switch mutant of DnaK harbouring the PfHsp70-z linker) (E. coli) (UniProt P0A6Y8); remark: listed apart in the source

Substance | Kd [1] [nM] | Kd [2] [nM] | Kd [3] [nM] | Kd [4] | Kd [5] [nM] | Kd [6] [nM] | koff [6] | kon [6] | koff [4] | kon [4]
ALLLMYRR (peptide) | 99.3 | 41.6 | 2440 | 89.4 nM | 36.5 | 1950 |  |  |  | 
ANNNMYRR (peptide) | 977 | 3.3 | 1690 | 778 nM |  | 1770 |  |  |  | 
DnaKLS (linker switch mutant of DnaK harbouring the PfHsp70-z linker) (from UniProt P0A6Y8 1-638) (natural protein) |  |  |  |  |  |  | 0.0714 s⁻¹ and 0.0903 s⁻¹ and 0.0492 s⁻¹ |  |  | 
E. coli Hsp70 (DnaK) (from UniProt P0A6Y8 1-638) (natural protein) |  |  |  |  |  |  |  | 45700 M⁻¹ s⁻¹ and 73200 M⁻¹ s⁻¹ and 63200 M⁻¹ s⁻¹ |  | 
NRLLTG (peptide) | 174 | 21.1 | 962 | 682 nM | 20.7 | 891 |  |  |  | 
NRNNTG (peptide) | 466 | 25.6 | 855 | 132 nM | 59.5 | 716 |  |  |  | 
PfHsp70-1LS (linker switch mutant of PfHsp70-1 carrying the linker of PfHsp70-z) (from UniProt Q8IB24 1-677) (natural protein) |  |  |  | 42400 nM and 17200 nM and 59000 nM |  |  |  |  | 0.0447 s⁻¹ and 0.0633 s⁻¹ and 0.0666 s⁻¹ | 
Plasmodium falciparum heat shock protein 70-1 (PfHsp70-1) (from UniProt Q8IB24 1-677) (natural protein) |  |  |  | 4700 nM and 3370 nM and 998 nM |  |  |  |  | 0.0935 s⁻¹ and 0.0539 s⁻¹ and 0.0392 s⁻¹ | 19900 M⁻¹ s⁻¹ and 16000 M⁻¹ s⁻¹ and 39500 M⁻¹ s⁻¹
